Blank lines part the entries; values can stand above or below the sequence they belong to.
Experiments:
[1] = molecular target: HLA-A*11:01; experiment: IEDB peptide-MHC binding, purified MHC/competitive/fluorescence; ≥ and ≤ were set here for values at or beyond the usual limits of such assays
[2] = molecular target: HLA-A*02:01; experiment: as above; conditions: source organism: Zaire ebolavirus
[3] = molecular target: HLA-B*15:01; experiment: as above; conditions: source organism: Zaire ebolavirus
[4] = molecular target: HLA-A*03:01; experiment: as above
[5] = molecular target: HLA-B*07:02; experiment: IEDB peptide-MHC binding, purified MHC/competitive/fluorescence; filed as Kd, often an IC50 or EC50 that approximates it; ≥ and ≤ were set here for values at or beyond the usual limits of such assays
[6] = molecular target: HLA-B*58:01; experiment: IEDB peptide-MHC binding, purified MHC/direct/fluorescence; filed as Kd, often an IC50 or EC50 that approximates it; ≥ and ≤ were set here for values at or beyond the usual limits of such assays
[7] = molecular target: HLA-A*11:01; experiment: as above
[8] = molecular target: HLA-A*02:01; experiment: as above
[9] = molecular target: HLA-B*44:02; experiment: as above
[10] = molecular target: HLA-B*40:01; experiment: as above
[11] = molecular target: HLA-A*01:01; experiment: as above
[12] = molecular target: HLA-B*08:01; experiment: as above
[13] = molecular target: HLA-A*24:03; experiment: as above; conditions: source organism: Influenza A virus (A/swine/Hong Kong/5190/99(H3N2))
[14] = molecular target: HLA-A*03:01; experiment: as above
[15] = molecular target: HLA-B*07:02; experiment: as above
[16] = molecular target: HLA-A*69:01; experiment: as above
[17] = molecular target: HLA-A*26:01; experiment: as above
[18] = molecular target: HLA-A*31:01; experiment: as above
[19] = molecular target: HLA-B*27:05; experiment: as above
[20] = molecular target: HLA-A*24:02; experiment: as above
[21] = molecular target: HLA-B*15:01; experiment: as above; conditions: source organism: Influenza A virus (A/Puerto Rico/8/34/Mount Sinai(H1N1))
[22] = molecular target: HLA-B*46:01; experiment: as above
[23] = molecular target: HLA-B*08:01; experiment: IEDB peptide-MHC binding, purified MHC/competitive/fluorescence; ≥ and ≤ were set here for values at or beyond the usual limits of such assays; conditions: source organism: Zaire ebolavirus
[24] = molecular target: HLA-B*07:02; experiment: as above; conditions: source organism: Zaire ebolavirus
[25] = molecular target: HLA-B*51:01; experiment: IEDB peptide-MHC binding, purified MHC/competitive/fluorescence; filed as Kd, often an IC50 or EC50 that approximates it; ≥ and ≤ were set here for values at or beyond the usual limits of such assays; conditions: source organism: Encephalitozoon cuniculi GB-M1
[26] = molecular target: HLA-B*15:01; experiment: as above; conditions: source organism: Encephalitozoon cuniculi GB-M1
[27] = molecular target: HLA-B*35:01; experiment: as above; conditions: source organism: Encephalitozoon cuniculi GB-M1
[28] = molecular target: HLA-A*24:02; experiment: IEDB peptide-MHC binding, purified MHC/competitive/fluorescence; ≥ and ≤ were set here for values at or beyond the usual limits of such assays; conditions: source organism: Zaire ebolavirus
[29] = source organism: Zaire ebolavirus
[30] = source organism: Influenza A virus (A/swine/Hong Kong/5190/99(H3N2))
[31] = source organism: Influenza A virus (A/SW/KS/13481-T/00(H1N2))
[32] = source organism: Sudan ebolavirus
[33] = source organism: Influenza A virus (A/Hong Kong/507/97(H5N1))

Sequence: AITAASLPK
IC50 [1, 29]: 0.368 µM
IC50 [2]: ≥ 281 µM
IC50 [3]: ≥ 183 µM
IC50 [4, 29]: 6.97 µM

Sequence: APGWLIWTY
Kd ([5]; source organism: human gammaherpesvirus 4): ≥ 20 µM

Sequence: GYMFESKSM
Kd [6, 30]: ≥ 20 µM
Kd [7, 30]: ≥ 20 µM
Kd [8, 30]: ≥ 20 µM
Kd [9, 30]: ≥ 20 µM
Kd [10, 30]: ≥ 20 µM
Kd [11, 30]: ≥ 20 µM
Kd [12, 30]: ≥ 20 µM
Kd [13]: 0.0677 µM
Kd [14, 30]: ≥ 20 µM
Kd [15, 30]: ≥ 20 µM
Kd [16, 30]: ≥ 20 µM
Kd ([17]; source organism: Influenza A virus(A/swine/Henan/5/2004(H9N2))): ≥ 20 µM
Kd [18, 30]: ≥ 20 µM
Kd [19, 30]: ≥ 20 µM
Kd [20, 30]: ≥ 20 µM

Sequence: HEKGINPNY
Kd [6, 31]: ≥ 20 µM
Kd [7, 31]: ≥ 20 µM
Kd [8, 31]: ≥ 20 µM
Kd [10, 31]: ≥ 20 µM
Kd [21]: 0.541 µM
Kd [11, 31]: ≥ 20 µM
Kd [12, 31]: ≥ 20 µM
Kd [14, 31]: ≥ 20 µM
Kd [15, 31]: ≥ 20 µM
Kd [16, 31]: ≥ 20 µM
Kd [17, 31]: ≥ 20 µM
Kd [22, 31]: ≥ 20 µM
Kd [18, 31]: ≥ 20 µM
Kd [19, 31]: ≥ 20 µM
Kd [20, 31]: ≥ 20 µM

Sequence: HLASTDQLK
IC50 [1, 32]: 13.8 µM
IC50 [4, 32]: 27.1 µM

Sequence: ILFQRTFSI
IC50 [1, 29]: 42.8 µM
IC50 [2]: 0.309 µM
IC50 [3]: ≥ 375 µM
IC50 [23]: 1.26 µM
IC50 [4, 29]: 2.46 µM
IC50 [24]: ≥ 72.2 µM

Kd [25]: ≥ 20 µM
Kd [26]: 0.188 µM
Kd [27]: 3.18 µM
Kd ([5]; source organism: Encephalitozoon cuniculi GB-M1): 0.201 µM
Sequence: ILRQNMIAL

Sequence: IMPRDSWLI
Kd ([20]; source organism: Mycobacterium tuberculosis str. Haarlem): ≤ 0.001 µM

Sequence: KSCLPACVY
Kd [6, 33]: 0.211 µM
Kd [8, 33]: ≥ 20 µM
Kd [9, 33]: ≥ 20 µM
Kd [10, 33]: ≥ 20 µM
Kd [21]: 0.482 µM
Kd [11, 33]: ≥ 20 µM
Kd [12, 33]: ≥ 20 µM
Kd [14, 33]: ≥ 20 µM
Kd [15, 33]: ≥ 20 µM
Kd [16, 33]: ≥ 20 µM
Kd ([17]; source organism: Influenza A virus(A/swine/Henan/8/2004(H9N2))): ≥ 20 µM
Kd [22, 33]: ≥ 20 µM
Kd [18, 33]: ≥ 20 µM
Kd [19, 33]: ≥ 20 µM
Kd [20, 33]: ≥ 20 µM

Sequence: KYLEGHGFR
IC50 [4, 29]: ≥ 195 µM
IC50 [28]: 7.69 µM
